In paper PMC12226076, “Structural insights and rational design of Pseudomonasputida KT2440 omega transaminases for enhanced biotransformation of (R)-PAC to (1R, 2S)-Norephedrine” (The Journal of Biological Chemistry, 2025):

test system: C[C@H](N)c1ccccc1; assay: purified protein; type: biochemical, Pseudomonas putida; settings: 20 mM pyruvate, 2 mM PLP, 50 mM HEPES pH 8.0, 30 °C, (S)-MBA 0-5 mM

Molecule | Km | Vmax | kcat | kcat/Km
TA_2799 (Pseudomonas putida KT2440) | 6459 ± 621 µM | 0.104 µmol/min/mg | 0.072 ± 0.00465 s⁻¹ | 11.1 M⁻¹ s⁻¹
TA_2799 (Pseudomonas putida KT2440; C324Y/L322F) | 1188 ± 122 µM | – | 0.02302 ± 0.000817 s⁻¹ | –
TA_2799 (Pseudomonas putida KT2440; L322F) | 1068 ± 566 µM | 0.042 µmol/min/mg | 0.0296 ± 0.0006 s⁻¹ | 27.7 M⁻¹ s⁻¹
TA_5182 (Pseudomonas putida KT2440) | 1089 ± 117 µM | 0.007 µmol/min/mg | 0.0049 ± 0.000117 s⁻¹ | 4.48 M⁻¹ s⁻¹
TA_5182 (Pseudomonas putida KT2440; G119N) | 347 ± 24 µM | 0.003 µmol/min/mg | 0.00245 ± 3.33e-05 s⁻¹ | 7.05 M⁻¹ s⁻¹

target: T1, TA_2799 (Pseudomonas putida, UniProt Q88J50); assay: X-ray crystal structure, […] Å; type: binding; settings: covalent; internal aldimine with catalytic K286
T1 construct: gene PP_2799; pET43.1b, 6xHis tag, expressed in E. coli BL21 (DE3), Ni-NTA; homodimer; catalytic K286

Molecule | X-ray crystal structure, 1.76 Å
Cc1ncc(COP(=O)(O)O)c(C=O)c1O [PLP] | covalently bound internal aldimine form of the PLP bound to the catalytic K286 residue
